Biological target: HER2 (His-tagged HER2 protein) (UniProt P04626 23-652)
Assay: Ni-NTA bead pull-down with RT-qPCR quantification; 1.5 mM Mg2+; 3 nM HER2, aptamer 0-100 nM; 30 mM Tris-HCl, 150 mM NaCl, 1.5 mM MgCl2, pH not stated, 30 min at room temperature (bead assay); cells 37 C, 30 min to 4 h
Conditions: tags: His

AGCCGCGAGGGGAGGGAUAGGGUAGGGCGCGGCU (XNA, 2'-fluoro C and U (all pyrimidines)) [HER2 RNA aptamer (2'-F pyrimidine)]
Kd: 16.5 ± 4.4 nM

Reference: PMC7767363, “Development of HER2-Specific Aptamer-Drug Conjugate for Breast Cancer Therapy”
